Test results as given in the supplement of paper PMC10567573.

B1: MYBL2 (parent)
chain: IAKHLKGRLGKQCRERWHNHLNPE

Variants of: B1
Test: protein stability index of a GFP-peptide fusion (GPS, HEK-293T) (PSI 1-6); higher = more stable
Conditions: c terminus: a fixed tail appended
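Also: lentivirally expressed fusions sorted by FACS into six bins by GFP to DsRed ratio, PSI derived from sequencing read proportions per bin multiplied by bin number.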

Variant	protein stability index
IAKHLDGRLGKQCRERWHNHLNPE [K6D]	2.46
IAKHLLGRLGKQCRERWHNHLNPE [K6L]	4.25
IAKHLPGRLGKQCRERWHNHLNPE [K6P]	2.03
IAKHLMGRLGKQCRERWHNHLNPE [K6M]	1.97
IAKHLQGRLGKQCRERWHNHLNPE [K6Q]	1.56
IAKHLWGRLGKQCRERWHNHLNPE [K6W]	1.27
IAKHLVGRLGKQCRERWHNHLNPE [K6V]	2.45
IAKHLNGRLGKQCRERWHNHLNPE [K6N]	2.21
IAKHLFGRLGKQCRERWHNHLNPE [K6F]	2.94
IAKHLTGRLGKQCRERWHNHLNPE [K6T]	2.21
IAKHLAGRLGKQCRERWHNHLNPE [K6A]	1.7
IAKHLCGRLGKQCRERWHNHLNPE [K6C]	2.59
IAKHLSGRLGKQCRERWHNHLNPE [K6S]	1.81
IAKHLHGRLGKQCRERWHNHLNPE [K6H]	1.91
IAKHLGGRLGKQCRERWHNHLNPE [K6G]	1.67
IAKHLRGRLGKQCRERWHNHLNPE [K6R]	1.67
IAKHLEGRLGKQCRERWHNHLNPE [K6E]	1.55
IAKHLYGRLGKQCRERWHNHLNPE [K6Y]	1.77
IAKHLKIRLGKQCRERWHNHLNPE [G7I]	2.31
IAKHLKYRLGKQCRERWHNHLNPE [G7Y]	2.14
IAKHLKFRLGKQCRERWHNHLNPE [G7F]	2.25
IAKHLKWRLGKQCRERWHNHLNPE [G7W]	2.74
IAKHLKSRLGKQCRERWHNHLNPE [G7S]	2.39
IAKHLKKRLGKQCRERWHNHLNPE [G7K]	1.77

Variant	protein stability index
IAKHLKDRLGKQCRERWHNHLNPE [G7D]	2.61
IAKHLKRRLGKQCRERWHNHLNPE [G7R]	2.2
IAKHLKERLGKQCRERWHNHLNPE [G7E]	1.88
IAKHLKNRLGKQCRERWHNHLNPE [G7N]	1.82
IAKHLKLRLGKQCRERWHNHLNPE [G7L]	2.71
IAKHLKVRLGKQCRERWHNHLNPE [G7V]	2.45
IAKHLKQRLGKQCRERWHNHLNPE [G7Q]	1.65
IAKHLKMRLGKQCRERWHNHLNPE [G7M]	1.77
IAKHLKHRLGKQCRERWHNHLNPE [G7H]	3.17
IAKHLKTRLGKQCRERWHNHLNPE [G7T]	2.25
IAKHLKARLGKQCRERWHNHLNPE [G7A]	2.94
IAKHLKPRLGKQCRERWHNHLNPE [G7P]	2.14
IAKHLKCRLGKQCRERWHNHLNPE [G7C]	1.6
IAKHLKGRLCKQCRERWHNHLNPE [G10C]	1.74
IAKHLKGRLFKQCRERWHNHLNPE [G10F]	3.24
IAKHLKGRLWKQCRERWHNHLNPE [G10W]	2.56
IAKHLKGRLHKQCRERWHNHLNPE [G10H]	1.35
IAKHLKGRLYKQCRERWHNHLNPE [G10Y]	2.49
IAKHLKGRLPKQCRERWHNHLNPE [G10P]	2.22
IAKHLKGRLEKQCRERWHNHLNPE [G10E]	1.48
IAKHLKGRLIKQCRERWHNHLNPE [G10I]	2.44
IAKHLKGRLAKQCRERWHNHLNPE [G10A]	1.92
IAKHLKGRLNKQCRERWHNHLNPE [G10N]	2.52
IAKHLKGRLTKQCRERWHNHLNPE [G10T]	2.16

Variant	protein stability index
IAKHLKGRLQKQCRERWHNHLNPE [G10Q]	1.96
IAKHLKGRLDKQCRERWHNHLNPE [G10D]	1.83
IAKHLKGRLRKQCRERWHNHLNPE [G10R]	1.67
IAKHLKGRLSKQCRERWHNHLNPE [G10S]	1.99
IAKHLKGRLVKQCRERWHNHLNPE [G10V]	2.54
IAKHLKGRLKKQCRERWHNHLNPE [G10K]	1.61
IAKHLKGRLLKQCRERWHNHLNPE [G10L]	1.94
IAKHLKGRLGSQCRERWHNHLNPE [K11S]	2.43
IAKHLKGRLGHQCRERWHNHLNPE [K11H]	2.41
IAKHLKGRLGWQCRERWHNHLNPE [K11W]	2.44
IAKHLKGRLGEQCRERWHNHLNPE [K11E]	2.46
IAKHLKGRLGGQCRERWHNHLNPE [K11G]	3.92
IAKHLKGRLGAQCRERWHNHLNPE [K11A]	2.06
IAKHLKGRLGMQCRERWHNHLNPE [K11M]	2.69
IAKHLKGRLGPQCRERWHNHLNPE [K11P]	1.75
IAKHLKGRLGNQCRERWHNHLNPE [K11N]	2.43
IAKHLKGRLGVQCRERWHNHLNPE [K11V]	2.12
IAKHLKGRLGFQCRERWHNHLNPE [K11F]	1.4
IAKHLKGRLGYQCRERWHNHLNPE [K11Y]	2.02
IAKHLKGRLGLQCRERWHNHLNPE [K11L]	2.36
IAKHLKGRLGRQCRERWHNHLNPE [K11R]	1.95
IAKHLKGRLGQQCRERWHNHLNPE [K11Q]	1.79
IAKHLKGRLGTQCRERWHNHLNPE [K11T]	1.67
IAKHLKGRLGIQCRERWHNHLNPE [K11I]	1.97

Variant	protein stability index
IAKHLKGRLGDQCRERWHNHLNPE [K11D]	2.47
IAKHLKGRLGCQCRERWHNHLNPE [K11C]	2.09
IAKHLKGRCGKQCRERWHNHLNPE [L9C]	2.08
IAKHLKGRAGKQCRERWHNHLNPE [L9A]	1.76
IAKHLKGREGKQCRERWHNHLNPE [L9E]	2.73
IAKHLKGRIGKQCRERWHNHLNPE [L9I]	1.43
IAKHLKGRNGKQCRERWHNHLNPE [L9N]	2.31
IAKHLKGRQGKQCRERWHNHLNPE [L9Q]	2.06
IAKHLKGRHGKQCRERWHNHLNPE [L9H]	2
IAKHLKGRRGKQCRERWHNHLNPE [L9R]	2.72
IAKHLKGRFGKQCRERWHNHLNPE [L9F]	1.7
IAKHLKGRMGKQCRERWHNHLNPE [L9M]	2.45
IAKHLKGRSGKQCRERWHNHLNPE [L9S]	2.55
IAKHLKGRKGKQCRERWHNHLNPE [L9K]	2.5
IAKHLKGRYGKQCRERWHNHLNPE [L9Y]	2.24
IAKHLKGRTGKQCRERWHNHLNPE [L9T]	1.99
IAKHLKGRWGKQCRERWHNHLNPE [L9W]	1.67
IAKHLKGRDGKQCRERWHNHLNPE [L9D]	3.01
IAKHLKGRGGKQCRERWHNHLNPE [L9G]	2.45
IAKHLKGRPGKQCRERWHNHLNPE [L9P]	2.28
IAKHLKGRVGKQCRERWHNHLNPE [L9V]	2.18
IAKHLKGRLGKQCPERWHNHLNPE [R14P]	2.64
IAKHLKGRLGKQCAERWHNHLNPE [R14A]	2
IAKHLKGRLGKQCYERWHNHLNPE [R14Y]	2.12

Variant	protein stability index
IAKHLKGRLGKQCMERWHNHLNPE [R14M]	1.29
IAKHLKGRLGKQCKERWHNHLNPE [R14K]	1.87
IAKHLKGRLGKQCLERWHNHLNPE [R14L]	1.63
IAKHLKGRLGKQCCERWHNHLNPE [R14C]	1.77
IAKHLKGRLGKQCDERWHNHLNPE [R14D]	2.56
IAKHLKGRLGKQCVERWHNHLNPE [R14V]	1.74
IAKHLKGRLGKQCGERWHNHLNPE [R14G]	2.03
IAKHLKGRLGKQCNERWHNHLNPE [R14N]	2.62
IAKHLKGRLGKQCQERWHNHLNPE [R14Q]	2.52
IAKHLKGRLGKQCWERWHNHLNPE [R14W]	1.82
IAKHLKGRLGKQCTERWHNHLNPE [R14T]	2.61
IAKHLKGRLGKQCIERWHNHLNPE [R14I]	1.83
IAKHLKGRLGKQCSERWHNHLNPE [R14S]	1.5
IAKHLKGRLGKQCHERWHNHLNPE [R14H]	2.3
IAKHLKGRLGKQCEERWHNHLNPE [R14E]	2.59
IAKHLKGRLGKQCFERWHNHLNPE [R14F]	1.47
IAKHLKGRLGKQGRERWHNHLNPE [C13G]	2.54
IAKHLKGRLGKQDRERWHNHLNPE [C13D]	2.57
IAKHLKGRLGKQERERWHNHLNPE [C13E]	2.68
IAKHLKGRLGKQPRERWHNHLNPE [C13P]	2.57
IAKHLKGRLGKQWRERWHNHLNPE [C13W]	2.19
IAKHLKGRLGKQTRERWHNHLNPE [C13T]	2.08
IAKHLKGRLGKQNRERWHNHLNPE [C13N]	3.21
IAKHLKGRLGKQVRERWHNHLNPE [C13V]	1.97

Variant	protein stability index
IAKHLKGRLGKQKRERWHNHLNPE [C13K]	2.34
IAKHLKGRLGKQFRERWHNHLNPE [C13F]	1.65
IAKHLKGRLGKQLRERWHNHLNPE [C13L]	1.87
IAKHLKGRLGKQIRERWHNHLNPE [C13I]	2.58
IAKHLKGRLGKQMRERWHNHLNPE [C13M]	2.01
IAKHLKGRLGKQARERWHNHLNPE [C13A]	2.55
IAKHLKGRLGKQSRERWHNHLNPE [C13S]	2.14
IAKHLKGRLGKQRRERWHNHLNPE [C13R]	2.3
IAKHLKGRLGKQYRERWHNHLNPE [C13Y]	1.64
IAKHLKGRLGKQHRERWHNHLNPE [C13H]	2.33
IAKHLKGRLGKQQRERWHNHLNPE [C13Q]	1.96
IAKHLKGRLGKSCRERWHNHLNPE [Q12S]	2.77
IAKHLKGRLGKWCRERWHNHLNPE [Q12W]	1.93
IAKHLKGRLGKYCRERWHNHLNPE [Q12Y]	2.33
IAKHLKGRLGKKCRERWHNHLNPE [Q12K]	1.51
IAKHLKGRLGKHCRERWHNHLNPE [Q12H]	2.38
IAKHLKGRLGKFCRERWHNHLNPE [Q12F]	2.08
IAKHLKGRLGKLCRERWHNHLNPE [Q12L]	2.32
IAKHLKGRLGKNCRERWHNHLNPE [Q12N]	1.38
IAKHLKGRLGKVCRERWHNHLNPE [Q12V]	1.61
IAKHLKGRLGKTCRERWHNHLNPE [Q12T]	1.55
IAKHLKGRLGKACRERWHNHLNPE [Q12A]	1.29
IAKHLKGRLGKDCRERWHNHLNPE [Q12D]	1.93
IAKHLKGRLGKPCRERWHNHLNPE [Q12P]	1.54

Variant	protein stability index
IAKHLKGRLGKECRERWHNHLNPE [Q12E]	1.92
IAKHLKGRLGKICRERWHNHLNPE [Q12I]	2.97
IAKHLKGRLGKCCRERWHNHLNPE [Q12C]	2.53
IAKHLKGRLGKMCRERWHNHLNPE [Q12M]	1.92
IAKHLKGRLGKRCRERWHNHLNPE [Q12R]	2.44
IAKHLKGRLGKGCRERWHNHLNPE [Q12G]	3.02
IAKHCKGRLGKQCRERWHNHLNPE [L5C]	1.9
IAKHGKGRLGKQCRERWHNHLNPE [L5G]	2.04
IAKHQKGRLGKQCRERWHNHLNPE [L5Q]	1.87
IAKHVKGRLGKQCRERWHNHLNPE [L5V]	2.18
IAKHEKGRLGKQCRERWHNHLNPE [L5E]	2.49
IAKHWKGRLGKQCRERWHNHLNPE [L5W]	1.84
IAKHIKGRLGKQCRERWHNHLNPE [L5I]	1.75
IAKHMKGRLGKQCRERWHNHLNPE [L5M]	1.72
IAKHSKGRLGKQCRERWHNHLNPE [L5S]	2.29
IAKHPKGRLGKQCRERWHNHLNPE [L5P]	2.07
IAKHNKGRLGKQCRERWHNHLNPE [L5N]	2.38
IAKHDKGRLGKQCRERWHNHLNPE [L5D]	2.7
IAKHRKGRLGKQCRERWHNHLNPE [L5R]	2.7
IAKHTKGRLGKQCRERWHNHLNPE [L5T]	2.35
IAKHHKGRLGKQCRERWHNHLNPE [L5H]	2.51
IAKHYKGRLGKQCRERWHNHLNPE [L5Y]	1.86
IAKHFKGRLGKQCRERWHNHLNPE [L5F]	1.67
IAKHKKGRLGKQCRERWHNHLNPE [L5K]	2.49

Variant	protein stability index
IAKHAKGRLGKQCRERWHNHLNPE [L5A]	2.18
IAKHLKGWLGKQCRERWHNHLNPE [R8W]	2.73
IAKHLKGHLGKQCRERWHNHLNPE [R8H]	1.91
IAKHLKGQLGKQCRERWHNHLNPE [R8Q]	1.76
IAKHLKGNLGKQCRERWHNHLNPE [R8N]	1.61
IAKHLKGVLGKQCRERWHNHLNPE [R8V]	1.6
IAKHLKGSLGKQCRERWHNHLNPE [R8S]	1.8
IAKHLKGMLGKQCRERWHNHLNPE [R8M]	1.74
IAKHLKGELGKQCRERWHNHLNPE [R8E]	2.14
IAKHLKGYLGKQCRERWHNHLNPE [R8Y]	1.9
IAKHLKGPLGKQCRERWHNHLNPE [R8P]	2.65
IAKHLKGDLGKQCRERWHNHLNPE [R8D]	2.41
IAKHLKGGLGKQCRERWHNHLNPE [R8G]	1.81
IAKHLKGTLGKQCRERWHNHLNPE [R8T]	1.63
IAKHLKGALGKQCRERWHNHLNPE [R8A]	1.97
IAKHLKGILGKQCRERWHNHLNPE [R8I]	1.53
IAKHLKGCLGKQCRERWHNHLNPE [R8C]	2.23
IAKHLKGKLGKQCRERWHNHLNPE [R8K]	2.11
IAKWLKGRLGKQCRERWHNHLNPE [H4W]	1.76
IAKYLKGRLGKQCRERWHNHLNPE [H4Y]	4.85
